Test results taken from IntAct's records for PubMed 15791205.

B1: Angiotensin-converting enzyme 2 (Rattus norvegicus (Rat)), Q5EGZ1 (parent)
chain: MSSSCWLLLSLVAVATAQSLIEEKAESFLNKFNQEAEDLSYQSSLASWNYNTNITEENAQKMNEAAAKWSAFYEEQSKIAQNFSLQEIQNATIKRQLKALQQSGSSALSPDKNKQLNTILNTMSTIYSTGKVCNSMNPQECFLLEPGLDEIMATSTDYNRRLWAWEGWRAEVGKQLRPLYEEYVVLKNEMARANNYEDYGDYWRGDYEAEGVEGYNYNRNQLIEDVENTFKEIKPLYEQLHAYVRTKLMEVYPSYISPTGCLPAHLLGDMWGRFWTNLYPLTTPFLQKPNIDVTDAMVNQSWDAERIFKEAEKFFVSVGLPQMTPGFWTNSMLTEPGDDRKVVCHPTAWDLGHGDFRIKMCTKVTMDNFLTAHHEMGHIQYDMAYAKQPFLLRNGANEGFHEAVGEIMSLSAATPKHLKSIGLLPSNFQEDNETEINFLLKQALTIVGTLPFTYMLEKWRWMVFQDKIPREQWTKKWWEMKREIVGVVEPLPHDETYCDPASLFHVSNDYSFIRYYTRTIYQFQFQEALCQAAKHDGPLHKCDISNSTEAGQKLLNMLSLGNSGPWTLALENVVGSRNMDVKPLLNYFQPLFVWLKEQNRNSTVGWSTDWSPYADQSIKVRISLKSALGKNAYEWTDNEMYLFRSSVAYAMREYFSREKNQTVPFGEADVWVSDLKPRVSFNFFVTSPKNVSDIIPRSEVEEAIRMSRGRINDIFGLNDNSLEFLGIYPTLKPPYEPPVTIWLIIFGVVMGTVVVGIVILIVTGIKGRKKKNETKREENPYDSMDIGKGESNAGFQNSDDAQTSF

Variants of: B1
Settings: with spike_sars S

Variant	effect of a mutation on the interaction
N82M;F83Y;S84P	causing an interaction
N82M;F83Y;S84P;H353K	causing an interaction
H353K	causing an interaction

Variants of: B1
Settings: with spike_sars S
Remark: another data set of the same source

Variant	effect of a mutation on the interaction
N82M;F83Y;S84P;H353K	causing an interaction
